Publication PMC10397247

How the values were obtained:
O11 = biological target: T1, O11; assay: two-hybrid library CC0; conditions: mean of both orientations;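 note: natural log of median RNA to DNA barcode read ratio; higher means stronger binding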
T1 chain: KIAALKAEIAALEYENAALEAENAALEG

O12 = biological target: T2, O12; assay: two-hybrid library CC0; conditions: mean of both orientations;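 note: natural log of median RNA to DNA barcode read ratio; higher means stronger binding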
T2 chain: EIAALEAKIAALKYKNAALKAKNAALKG

O13 = biological target: T3, O13; assay: two-hybrid library CC0; conditions: mean of both orientations;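 note: natural log of median RNA to DNA barcode read ratio; higher means stronger binding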
T3 chain: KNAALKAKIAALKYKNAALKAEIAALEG

O14 = biological target: T4, O14; assay: two-hybrid library CC0; conditions: mean of both orientations;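 note: natural log of median RNA to DNA barcode read ratio; higher means stronger binding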
T4 chain: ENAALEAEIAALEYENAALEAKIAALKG

O15 = biological target: T5, O15; assay: two-hybrid library CC0; conditions: mean of both orientations;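 note: natural log of median RNA to DNA barcode read ratio; higher means stronger binding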
T5 chain: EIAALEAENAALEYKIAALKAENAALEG

O16 = biological target: T6, O16; assay: two-hybrid library CC0; conditions: mean of both orientations;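 note: natural log of median RNA to DNA barcode read ratio; higher means stronger binding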
T6 chain: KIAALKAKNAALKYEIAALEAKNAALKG

O2 = biological target: T7, O2; assay: two-hybrid library CC0; conditions: mean of both orientations
T7 chain: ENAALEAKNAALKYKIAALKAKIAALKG

O3 = biological target: T8, O3; assay: two-hybrid library CC0; conditions: mean of both orientations
T8 chain: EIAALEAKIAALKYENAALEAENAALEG

O4 = biological target: T9, O4; assay: two-hybrid library CC0; conditions: mean of both orientations
T9 chain: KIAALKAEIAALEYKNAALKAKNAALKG

O5 = biological target: T10, O5; assay: two-hybrid library CC0; conditions: mean of both orientations
T10 chain: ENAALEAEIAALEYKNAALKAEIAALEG

O6 = biological target: T11, O6; assay: two-hybrid library CC0; conditions: mean of both orientations
T11 chain: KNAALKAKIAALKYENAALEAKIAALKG

O7 = biological target: T12, O7; assay: two-hybrid library CC0; conditions: mean of both orientations
T12 chain: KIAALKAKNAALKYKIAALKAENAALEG

O8 = biological target: T13, O8; assay: two-hybrid library CC0; conditions: mean of both orientations
T13 chain: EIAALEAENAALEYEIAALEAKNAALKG

O9 = biological target: T14, O9; assay: two-hybrid library CC0; conditions: mean of both orientations
T14 chain: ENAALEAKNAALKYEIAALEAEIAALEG

4H1103-AA = biological target: T15, 4H1103-AA; assay: two-hybrid library CCmax
T15 chain: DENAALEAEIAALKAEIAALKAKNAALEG

4H1198-AA = biological target: T16, 4H1198-AA; assay: two-hybrid library CCmax; conditions: mean of both orientations
T16 chain: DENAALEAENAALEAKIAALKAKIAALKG

4H1350-AA = biological target: T17, 4H1350-AA; assay: two-hybrid library CCmax; conditions: mean of both orientations
T17 chain: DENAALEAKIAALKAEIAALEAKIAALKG

4H1405-AA = biological target: T18, 4H1405-AA; assay: two-hybrid library CCmax; conditions: mean of both orientations
T18 chain: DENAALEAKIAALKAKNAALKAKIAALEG

4H2211-AA = biological target: T19, 4H2211-AA; assay: two-hybrid library CCmax
T19 chain: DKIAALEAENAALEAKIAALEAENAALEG

4H2238-AA = biological target: T20, 4H2238-AA; assay: two-hybrid library CCmax; conditions: mean of both orientations
T20 chain: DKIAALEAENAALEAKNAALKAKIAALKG

4H2513-AA = biological target: T21, 4H2513-AA; assay: two-hybrid library CCmax; conditions: mean of both orientations
T21 chain: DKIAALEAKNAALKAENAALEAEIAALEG

4H2536-AA = biological target: T22, 4H2536-AA; assay: two-hybrid library CCmax; conditions: mean of both orientations
T22 chain: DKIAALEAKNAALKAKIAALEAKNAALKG

4H2608-AA = biological target: T23, 4H2608-AA; assay: two-hybrid library CCmax; conditions: mean of both orientations
T23 chain: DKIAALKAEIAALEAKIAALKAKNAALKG

4H2614-AA = biological target: T24, 4H2614-AA; assay: two-hybrid library CCmax; conditions: mean of both orientations
T24 chain: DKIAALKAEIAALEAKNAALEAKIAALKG

4H2726-AA = biological target: T25, 4H2726-AA; assay: two-hybrid library CCmax; conditions: mean of both orientations
T25 chain: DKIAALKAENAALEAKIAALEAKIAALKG

4H2935-AA = biological target: T26, 4H2935-AA; assay: two-hybrid library CCmax; conditions: mean of both orientations
T26 chain: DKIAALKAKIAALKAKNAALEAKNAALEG

4H327-AA = biological target: T27, 4H327-AA; assay: two-hybrid library CCmax
T27 chain: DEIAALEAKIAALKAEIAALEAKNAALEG

4H3605-AA = biological target: T28, 4H3605-AA; assay: two-hybrid library CCmax; conditions: mean of both orientations
T28 chain: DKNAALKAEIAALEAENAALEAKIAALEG

4H3625-AA = biological target: T29, 4H3625-AA; assay: two-hybrid library CCmax; conditions: mean of both orientations
T29 chain: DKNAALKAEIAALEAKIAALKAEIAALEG

4H3664-AA = biological target: T30, 4H3664-AA; assay: two-hybrid library CCmax; conditions: mean of both orientations
T30 chain: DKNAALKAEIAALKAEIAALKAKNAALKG

4H369-AA = biological target: T31, 4H369-AA; assay: two-hybrid library CCmax; conditions: mean of both orientations
T31 chain: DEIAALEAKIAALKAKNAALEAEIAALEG

4H3922-AA = biological target: T32, 4H3922-AA; assay: two-hybrid library CCmax; conditions: mean of both orientations
T32 chain: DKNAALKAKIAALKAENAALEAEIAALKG

4H4033-AA = biological target: T33, 4H4033-AA; assay: two-hybrid library CCmax; conditions: mean of both orientations
T33 chain: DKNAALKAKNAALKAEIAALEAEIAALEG

4H481-AA = biological target: T34, 4H481-AA; assay: two-hybrid library CCmax; conditions: mean of both orientations
T34 chain: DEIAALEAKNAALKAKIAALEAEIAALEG

4H55-AA = biological target: T35, 4H55-AA; assay: two-hybrid library CCmax; conditions: mean of both orientations
T35 chain: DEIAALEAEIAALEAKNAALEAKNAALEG

4H662-AA = biological target: T36, 4H662-AA; assay: two-hybrid library CCmax; conditions: mean of both orientations
T36 chain: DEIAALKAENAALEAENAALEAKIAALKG

4H134-AA = biological target: T37, 4H134-AA; assay: two-hybrid library CCmax
T37 chain: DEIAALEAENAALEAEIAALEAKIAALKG

4H1385-AA = biological target: T38, 4H1385-AA; assay: two-hybrid library CCmax; conditions: mean of both orientations
T38 chain: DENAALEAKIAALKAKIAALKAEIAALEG

4H1392-AA = biological target: T39, 4H1392-AA; assay: two-hybrid library CCmax; conditions: mean of both orientations
T39 chain: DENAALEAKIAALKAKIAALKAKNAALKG

4H2622-AA = biological target: T40, 4H2622-AA; assay: two-hybrid library CCmax; conditions: mean of both orientations
T40 chain: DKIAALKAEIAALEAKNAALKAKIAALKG

4H2705-AA = biological target: T41, 4H2705-AA; assay: two-hybrid library CCmax; conditions: mean of both orientations
T41 chain: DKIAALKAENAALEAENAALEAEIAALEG

4H2736-AA = biological target: T42, 4H2736-AA; assay: two-hybrid library CCmax; conditions: mean of both orientations
T42 chain: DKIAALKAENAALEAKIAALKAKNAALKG

4H2888-AA = biological target: T43, 4H2888-AA; assay: two-hybrid library CCmax; conditions: mean of both orientations
T43 chain: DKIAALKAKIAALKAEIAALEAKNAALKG

4H3049-AA = biological target: T44, 4H3049-AA; assay: two-hybrid library CCmax; conditions: mean of both orientations
T44 chain: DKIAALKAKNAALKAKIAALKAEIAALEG

4H337-AA = biological target: T45, 4H337-AA; assay: two-hybrid library CCmax; conditions: mean of both orientations
T45 chain: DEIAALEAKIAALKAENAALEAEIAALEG

4H3587-AA = biological target: T46, 4H3587-AA; assay: two-hybrid library CCmax; conditions: mean of both orientations
T46 chain: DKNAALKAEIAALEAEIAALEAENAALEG

4H3590-AA = biological target: T47, 4H3590-AA; assay: two-hybrid library CCmax; conditions: mean of both orientations
T47 chain: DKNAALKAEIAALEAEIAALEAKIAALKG

4H384-AA = biological target: T48, 4H384-AA; assay: two-hybrid library CCmax; conditions: mean of both orientations
T48 chain: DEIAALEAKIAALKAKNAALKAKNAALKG

4H3905-AA = biological target: T49, 4H3905-AA; assay: two-hybrid library CCmax; conditions: mean of both orientations
T49 chain: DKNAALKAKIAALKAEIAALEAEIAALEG

4H4038-AA = biological target: T50, 4H4038-AA; assay: two-hybrid library CCmax; conditions: mean of both orientations
T50 chain: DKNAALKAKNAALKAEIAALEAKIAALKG

4H43-AA = biological target: T51, 4H43-AA; assay: two-hybrid library CCmax; conditions: mean of both orientations
T51 chain: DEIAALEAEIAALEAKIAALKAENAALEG

4H451-AA = biological target: T52, 4H451-AA; assay: two-hybrid library CCmax; conditions: mean of both orientations
T52 chain: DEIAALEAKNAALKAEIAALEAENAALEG

4H510-AA = biological target: T53, 4H510-AA; assay: two-hybrid library CCmax; conditions: mean of both orientations
T53 chain: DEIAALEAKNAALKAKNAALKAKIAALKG

4H_APH = biological target: T54, 4H_APH; assay: two-hybrid library CCmax; conditions: mean of both orientations
T54 chain: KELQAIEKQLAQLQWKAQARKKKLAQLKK

4H_BCR = biological target: T55, 4H_BCR; assay: two-hybrid library CCmax
T55 chain: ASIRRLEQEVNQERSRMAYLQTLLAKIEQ

4H_GCN4 = assay: two-hybrid library CCmax
GCN2_T = assay: two-hybrid library CCmax; conditions: mean of both orientations
O11-AA = biological target: T56, O11-AA; assay: two-hybrid library CCmax; conditions: mean of both orientations
T56 chain: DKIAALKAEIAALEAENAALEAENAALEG

O13-AA = biological target: T57, O13-AA; assay: two-hybrid library CCmax; conditions: mean of both orientations
T57 chain: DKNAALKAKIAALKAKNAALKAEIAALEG

O14-AA = biological target: T58, O14-AA; assay: two-hybrid library CCmax; conditions: mean of both orientations
T58 chain: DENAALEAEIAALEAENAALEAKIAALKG

4H491-bH = biological target: T59, 4H491-bH; assay: two-hybrid library CCNG1
T59 chain: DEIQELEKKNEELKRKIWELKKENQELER

P11A-bA = biological target: T60, P11A-bA; assay: two-hybrid library CCNG1
T60 chain: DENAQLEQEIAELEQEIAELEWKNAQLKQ

Sequence of 4H_GCN4 (chain, as listed by the source): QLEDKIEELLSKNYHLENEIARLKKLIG

## KIAALKAEIAALEYENAALEAENAALEG [O11]
O11
  interaction score: -2.72
O12
  interaction score: 0.932
O13
  interaction score: -2.75
O14
  interaction score: -2.7
O15
  interaction score: -2.79
O16
  interaction score: -2.66
O2
  interaction score: -2.53
O3
  interaction score: -2.55
O4
  interaction score: 0.197
O5
  interaction score: -2.71
O6
  interaction score: -2.64
O7
  interaction score: -2.69
O8
  interaction score: -2.61
O9
  interaction score: -2.79

## DENAALEAEIAALKAEIAALKAKNAALEG [4H1103-AA]
4H1103-AA
  interaction score: 1.1
4H1198-AA
  interaction score: -1.33
4H1350-AA
  interaction score: -0.275
4H1405-AA
  interaction score: -1.89
4H2211-AA
  interaction score: -1.7
4H2238-AA
  interaction score: -1.65
4H2513-AA
  interaction score: -1.55
4H2536-AA
  interaction score: -1.47
4H2608-AA
  interaction score: 0.0702
4H2614-AA
  interaction score: -1.01
4H2726-AA
  interaction score: -1.04
4H2935-AA
  interaction score: -1.16
4H327-AA
  interaction score: -0.714
4H3605-AA
  interaction score: -1.61
4H3625-AA
  interaction score: -0.923
4H3664-AA
  interaction score: 2.17
4H369-AA
  interaction score: -1.5
4H3922-AA
  interaction score: -1.44
4H4033-AA
  interaction score: 0.386
4H481-AA
  interaction score: -0.163
4H55-AA
  interaction score: -1.09
4H662-AA
  interaction score: -1.27

## DEIAALEAENAALEAEIAALEAKIAALKG [4H134-AA]
4H134-AA
  interaction score: -0.374
4H1350-AA
  interaction score: 0.48
4H1385-AA
  interaction score: 2.21
4H1392-AA
  interaction score: 0.139
4H2622-AA
  interaction score: 2.38
4H2705-AA
  interaction score: -0.938
4H2736-AA
  interaction score: 0.536
4H2888-AA
  interaction score: 2.4
4H3049-AA
  interaction score: 1.84
4H337-AA
  interaction score: 0.273
4H3587-AA
  interaction score: 0.794
4H3590-AA
  interaction score: 0.654
4H3625-AA
  interaction score: 1.5
4H384-AA
  interaction score: 2.04
4H3905-AA
  interaction score: 1.17
4H4038-AA
  interaction score: 2
4H43-AA
  interaction score: -0.679
4H451-AA
  interaction score: 0.937
4H510-AA
  interaction score: 1.96
4H_APH
  interaction score: 1.96
4H_BCR
  interaction score: -0.839
4H_GCN4
  interaction score: 1.94
GCN2_T
  interaction score: 0.268
O11-AA
  interaction score: -1.36
O13-AA
  interaction score: 2.02
O14-AA
  interaction score: -0.533

## DEIQELEKKNEELKRKIWELKKENQELER [4H491-bH]
4H491-bH
  interaction score: -1.32
P11A-bA
  interaction score: 0.405
